Laboratory results published in patent US20240043505A1 (UNIVERSITY OF PITTSBURGH OF THE COMMONWEALTH SYSTEM OF …, published 2024).
Where “and” joins values, the source holds several entries; their conditions need not be identical. Identical values can stand only once.

B1: Nb17 (VHH)
VHH: HVQLVESGGGLVQAGGSLRLSCAASGSIFSSNAMSWYRQAPGKQRELVASITSGGNADYADSVKGRFTISRDKNTVYPEMSSLKPADTAVYYCHAVGQEASAYAPRAYWGQGTQVTVSS
B2: Nb17 (VHH)
VHH: HVQLVESGGGLVQAGGSLRLSCAASGSIFSSNAMSWYRQAPGKQRELVASITSGGNADYADSVKGRFTISRDKNTVYPEMSSLKPADTAVYYCHAVGQEASAYAPRAYWGQGTQVTVSS
B3: Nb34 (VHH)
VHH: DVQLVESGGGLVQAGGSLRLSCAASGFTFSNYVMYWGRQAPGKGREWVSGIDSDGSDTAYASSVKGRFTISRDNAKNTLYLQMNNLKPEDTALYYCVKSKDPYGSPWTRSEFDDYWGQGTQVTVSS
B4: Nb34 (VHH)
VHH: DVQLVESGGGLVQAGGSLRLSCAASGFTFSNYVMYWGRQAPGKGREWVSGIDSDGSDTAYASSVKGRFTISRDNAKNTLYLQMNNLKPEDTALYYCVKSKDPYGSPWTRSEFDDYWGQGTQVTVSS
B5: Nb89 (VHH)
VHH: HVQLVESGGGLVQAGGSLRLSCAASGGTFTTFRMAWFRQTPGKEREFVAASSWGFVNYADPVKGRFTISRDNAKNTVYLEMSSLKTEDTAVYYCAARNPGTGQYDYWGQGTQVTVSS
B6: Nb89 (VHH)
VHH: HVQLVESGGGLVQAGGSLRLSCAASGGTFTTFRMAWFRQTPGKEREFVAASSWGFVNYADPVKGRFTISRDNAKNTVYLEMSSLKTEDTAVYYCAARNPGTGQYDYWGQGTQVTVSS
B7: Nb105 (VHH)
VHH: HVQLVESGGGLVQAGGSLRLSCAVSGRTFSTYGMAWFRQAPGKERDFVATITRSGETTLYADSVKGRFTISRDNAKNTVYLQMNSLKIEDTAVYYCAVRRDSSWGYSRDLFEYDYWGQGTQVTVSS
B8: Nb105 (VHH)
VHH: HVQLVESGGGLVQAGGSLRLSCAVSGRTFSTYGMAWFRQAPGKERDFVATITRSGETTLYADSVKGRFTISRDNAKNTVYLQMNSLKIEDTAVYYCAVRRDSSWGYSRDLFEYDYWGQGTQVTVSS
B9: Nb16 (VHH)
VHH: DVQLVESGGGLVQAGESLRLSCAASGDMFSSNAMAWYRQAPGKQRELVASITSGGNTNYADSVKGRFTISRDNAKNTVYLQMDSLKPEDTAVYYCNGVAYDYSWGRPRNFWGQGTQVTVSS
B10: Nb16 (VHH)
VHH: DVQLVESGGGLVQAGESLRLSCAASGDMFSSNAMAWYRQAPGKQRELVASITSGGNTNYADSVKGRFTISRDNAKNTVYLQMDSLKPEDTAVYYCNGVAYDYSWGRPRNFWGQGTQVTVSS
B11: Nb9 (VHH)
VHH: HVQLVESGGGLVQTGGSLRLSCAFSGYTFSTFPTAWFRQAPGKEREFVAGIRWNGGSRDYTEYADFVKGRFTISRDNAKNMIYLQMISLKPEDTALYYCAASHGVVDGTSVNGYRYWGQGTQVTVSS
B12: Nb9 (VHH)
VHH: HVQLVESGGGLVQTGGSLRLSCAFSGYTFSTFPTAWFRQAPGKEREFVAGIRWNGGSRDYTEYADFVKGRFTISRDNAKNMIYLQMISLKPEDTALYYCAASHGVVDGTSVNGYRYWGQGTQVTVSS
B13: Nb36 (VHH)
VHH: HVQLVESGGGLVQAGGSLTLTCAASGRTFSSETMDMGWFRQAPGKEREFVAADSWNDGSTYYADSVKGRFTISRDSAKNTLYLQMNSLKPEDTAVYYCAAETYSIYEKDDSWGYWGQGTQVTVSS
B14: Nb20 (VHH)
VHH: QVQLVESGGGLVQAGGSLRLSCAVSGAGAHRVGWFRRAPGKEREFVAAIGASGGMTNYLDSVKGRFTISRDNAKNTIYLQMNSLKPQDTAVYYCAARDIETAEYIYWGQGTQVTVSS
B15: Nb11 (VHH)
VHH: HVQLVESGGGLVQAGGSLRLSCAVSGASAERVGWFRRAPGKEREFVAAIGANGGSTNYLDSVKGRFTISRDNAKNTVYLQMNSLKPQDTAVYYCAARNLETFDYTYWGRGTQVTVSS
B16: Nb21 (VHH)
VHH: QVQLVESGGGLVQAGGSLRLSCAVSGLGAHRVGWFRRAPGKEREFVAAIGANGGNTNYLDSVKGRFTISRDNAKNTIYLQMNSLKPQDTAVYYCAARDIETAEYTYWGQGTQVTVSS
B17: Nb78 (VHH)
VHH: QVQLVESGGGLVQAGGSLRLSCAISGASANRVGWFRRAPGKEREFVAAIGASGGMTNYLDSVKGRFTISRDNAKNTVYLQMNSLKPQDTAVYYCAARNIETAEYTYWGQGTQVTVSS
B18: Nb20 (VHH)
VHH: QVQLVESGGGLVQAGGSLRLSCAVSGAGAHRVGWFRRAPGKEREFVAAIGASGGMTNYLDSVKGRFTISRDNAKNTIYLQMNSLKPQDTAVYYCAARDIETAEYIYWGQGTQVTVSS
B19: Nb95 (VHH)
VHH: QVQLVESGGGLVQAGGSLRLSCAASGRTFSSYSMGWFRQAQGKEREFVATINGNGRDTYYTNSVKGRFTISRDDATNTVYLQMNSLKPEDTAIYYCAADKDVYYGYTSFPNEYEYWGQGTQVTVSS
B20: Nb95 (VHH)
VHH: QVQLVESGGGLVQAGGSLRLSCAASGRTFSSYSMGWFRQAQGKEREFVATINGNGRDTYYTNSVKGRFTISRDDATNTVYLQMNSLKPEDTAIYYCAADKDVYYGYTSFPNEYEYWGQGTQVTVSS

What was measured:
[1] = molecular target: SARS-CoV-2 Munich strain spike glycoprotein on authentic virus (SARS-CoV-2); assay: cell-based or functional assay
[2] = molecular target: T1, SARS-CoV-2 (Wuhan-Hu-1 strain) spike glycoprotein on pseudotyped virus particles (SARS-CoV-2, UniProt P0DTC2 14-1273); assay: cell-based or functional assay
[3] = molecular target: T1, SARS-CoV-2 (Wuhan-Hu-1 strain) spike …; assay: cell-based or functional assay; remark: listed apart in the source
[4] = molecular target: SARS-CoV-2 spike glycoprotein (Wuhan-Hu-1 strain) on pseudotyped virus particles (SARS-CoV-2 (Wuhan-Hu-1 strain), UniProt P0DTC2 14-1273); assay: cell-based or functional assay
[5] = molecular target: SARS-CoV-2 spike glycoprotein on authentic virus (Munich strain) (SARS-CoV-2 (Munich strain), UniProt P0DTC2 14-1273); assay: cell-based or functional assay
[6] = molecular target: SARS-CoV-2 spike receptor-binding domain (RBD) (SARS-CoV-2, UniProt P0DTC2 319-541); assay: indirect ELISA, RBD coated on plate, 4PL fit
[7] = molecular target: SARS-CoV-2 spike glycoprotein on pseudotyped SARS-CoV-2 (Wuhan-Hu-1 strain) particles (SARS-CoV-2, UniProt P0DTC2 14-1273); assay: cell-based or functional assay
[8] = molecular target: SARS-CoV-2 spike glycoprotein on authentic SARS-CoV-2 (Munich strain, SARS-CoV-2/München-1.1/2020/929) (SARS-CoV-2, UniProt P0DTC2 14-1273); assay: cell-based or functional assay
[9] = molecular target: SARS-CoV-2 spike receptor-binding domain (RBD), recombinant (SARS-CoV-2, UniProt P0DTC2 319-541); assay: SPR (Biacore 3000), RBD immobilized on the chip, Nb as analyte, 1:1 Langmuir fit
[10] = molecular target: SARS-CoV RBD (SARS-CoV, UniProt P59594 306-527)

Binder	Authentic virus PRNT IC50 [1]	Pseudo-neut IC50 Luciferase [2]	Pseudo-neutralization IC50 (Luciferase) [4]	Authentic virus PRNT IC50 [5]	also measured
B1	1.5 nM	1.11 nM	–	–	IC50, virus neutralization in vitro (assay not stated) [3]: ~0.025 µg/mL; neutralization of SARS-CoV-2 (assay not stated) [3]: ≤ 100 ng/mL
B2	–	–	1.1 nM	1.5 nM	–
B3	–	–	2 nM	1.12 nM	ELISA affinity [6]: 0.47 nM
B4	1.12 nM	1.99 nM	–	–	neutralization of SARS-CoV-2 (assay not stated) [3]: < 150 ng/mL
B5	–	–	–	–	Pseudo-neutralization (GFP) [7]: < 0.5 nM; Pseudo-neutralization IC50 (Luciferase) [7]: 0.129 nM; Authentic virus PRNT IC50 [8]: 0.154 nM; Kd [9]: 0.108 nM; koff [9]: 0.000624 s⁻¹
B6	0.154 nM	0.133 nM	–	–	Pseudo-neutralization (GFP) [2]: < 0.5 nM; IC50, pseudovirus assay [3]: 2 ng/ml and 0.129 nM
B7	–	–	–	–	Pseudo-neutralization IC50 (Luciferase) [7]: 5 nM; Authentic virus PRNT IC50 [8]: 5.1 nM
B8	5.07 nM	5.11 nM	–	–	IC50 [10]: 3.76 nM; neutralization of SARS-CoV-2 (assay not stated) [3]: < 150 ng/mL
B9	–	–	1.57 nM	3.16 nM	ELISA affinity [6]: 0.37 nM
B10	1.23 nM	1.57 nM	–	–	–
B11	1.72 nM	1.5 nM	–	–	–
B12	–	–	1.5 nM	1.72 nM	ELISA affinity [6]: 0.89 nM
B13	–	1.56 nM	–	–	neutralization of SARS-CoV-2 (assay not stated) [3]: ≤ 100 ng/mL
B14	–	–	0.114 nM	0.0422 nM	Pseudo-neutralization (GFP) [4]: < 0.5 nM
B15	–	–	1 nM	0.78 nM	ELISA affinity [6]: 0.39 nM
B16	–	–	0.038 nM	0.0448 nM	Pseudo-neutralization (GFP) [4]: < 0.5 nM
B17	–	–	0.509 nM	0.766 nM	ELISA affinity [6]: 0.61 nM
B18	–	0.102 nM	–	–	Pseudo-neutralization (GFP) [2]: < 0.5 nM; IC50, pseudovirus assay [3]: 0.0016 µg/mL
B19	–	–	–	–	Pseudo-neutralization IC50 (Luciferase) [7]: 10 nM; Authentic virus PRNT IC50 [8]: 5.11 nM
B20	5.11 nM	10 nM	–	–	IC50 [10]: 31.6 nM; neutralization of SARS-CoV-2 (assay not stated) [3]: < 150 ng/mL
